Substitutions are numbered along the chain they refer to.
B1: 1A7 (antibody, V domains shown)
VH: QVQLVQSGAEVKKPGASVKVSCKASGYTFTFYDINWVRQATGQGLEWMGWMNPNSGNTGYAQNFQGRVTMTRNTSINTAYLELSSLRSEDTAVYYCARKIWVGHTTFDRWGQGTLVTVSS
VL: AIQMTQSPSSLSASVGDRVTITCRASQSISGYLNWYQQKPGKAPNLLIYAASNLQSGVPSRFSGSGSGTDFTLTISSLQREDFAPYYCQQTYNIPFTFGGGTKVEIK
B2: 3D2 (antibody, V domains shown)
VH: QVQLQQWGAGLLKPSETLSLTCAVFGGSFSSYYWSWIRHPPGKGLEWIGDINHSGSTNYNPSLKSRVTLSVDTSKNQFSLKVTSVTAADTAVYYCARWGIAADYGMDVWGQGTTVTVSS
VL: EIVLTQSPGTLSLSPGERATLSCRASQSVSSSYLAWYQQKPGQAPRLLIYGASSRATGIPDRFSDSGSGTDFTLTISRLEPEDFALYYCQQYGTSPWTFGQGTKVEIK
B3: 8A7 (antibody, V domains shown)
VH: QVQLQESGPGLVKPSETLSLTCTVSGGSISSNYWNWIRQPPGKGLEWIGYIYYSGSTNYNPSLKSRVTISVDTSKNQFSLKLSSVTAADTAVYYCARRGFEQQLSYYYYYGLDVWGQGTTVTVSS
VL: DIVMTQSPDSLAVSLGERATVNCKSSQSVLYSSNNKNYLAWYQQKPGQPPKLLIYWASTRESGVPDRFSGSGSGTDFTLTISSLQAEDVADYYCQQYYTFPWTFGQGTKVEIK
B4: 1H10 (antibody, V domains shown)
VH: EVQLLESGGGLVQPGGSLRLSCAASGFTLSTYAMSWVRQAPGKGLEWVSAISGTGLSTYYADSLKGRFTISRDISKNTLYLQMSSLKAEDTAVYYCAKGLELFYFYYGMDVWGQGTTVTVSS
VL: EIVLTQSPGTLSLSPGERATLSCRASQSVSSTYLAWYQQKPGQAPRLLIYGTSSRATGIPDRFSGSGSGTDFTLTISRLEPEDLAVYYCQQYGRSLIFGQGTRLEIK
B5: 2A6 (antibody, V domains shown)
VH: QVQLQQWGAGLLKPSETLSLTCAVYGGSFSGYYWSWIRQPPGKGLEWIGDINHGGSTNYNPSLKSRVIISVDTSKNQFSLKLSSVTAADTALYYCARGWGGQVAHWFDPWGQGTLGTVSS
VL: DIVMTQSPDSLALSLGERATINCKSSQSVLFSSNNQNYLAWYQQKPGQPPKLLIYWASTRESGVPDRFSGSGSGTDFTLTVSSLQAEDVAVYFCQQYYSLPYTFGQGTKLEIK
B6: 4D11 (antibody, V domains shown)
VH: QVQLVESGGGLVKPGGSLRLSCAGSGFTFSDHYMSWIRQAPGKGLEWVSYISTSGRTIYYADSVKGRFTISRDNAKNSLYLQMNSLRAEDTAVYYCASDYYDNSGWYYWGQGTLVTVSS
VL: not shown
B7: 4E2 (antibody, V domains shown)
VH: B6 VH with G24A, H32F, K43M, T53F, T57A, K65R, R87S, S104V, Y107D, Q111P
VL: not shown
B8: 1H1 (antibody, V domains shown)
VH: B6 VH with G24A, H32F, K43M, T53F, T57A, K65R, R87S, S104V, Y107D, Q111P
VL: not shown
B9: 1E8 (antibody, V domains shown)
VH: B6 VH with G24A, R56S, Y107N
VL: DVVMTQSPLSLPVTLGQPASISCRSSQSLVYSDGNTYLNWFQQRPGQSPRRLIYKVSDRDSGVPDRFSGSGSGTDFTLRISRVEAEDVGVYYCMQGSHWPRTFGQGTKVEIK
B10: 1A3 (antibody, V domains shown)
VH: B6 VH with G24A, G26E, F27I, H32Y, V48I, Y60F, E89D, Y100F, Y107E
VL: B9 VL with P12S, R79K, V83A, S97T

How the values were obtained:
[1] = biological target: T1, JCV major capsid protein VP1, wild type (John Cunningham virus (JCV), UniProt P03089 1-354); experiment: cell-based or functional assay
JCV VP1 mutant S269F [2] = biological target: T2, JCV VP1 mutant S269F (John Cunningham virus (JCV), UniProt P03089 1-354); experiment: cell-based or functional assay
[3] = biological target: T1, JCV major capsid protein VP1, wild type; experiment: ELISA, plates coated with pseudovirus, purified antibody
JCV VP1 mutant L55F [4] = biological target: T3, JCV VP1 mutant L55F (John Cunningham virus (JCV), UniProt P03089 1-354); experiment: as above
T3 construct: also called VP1 L55F; 55m VP1

JCV VP1 mutant S269F [5] = biological target: T2, JCV VP1 mutant S269F; experiment: as above
JCV VP1 mutant L55F [6] = biological target: T3, JCV VP1 mutant L55F; experiment: cell-based or functional assay

Binder	Neutralization of wild type JCV, EC50 [pM] [1] [pM]	Neutralization of JCV S269F: EC50 [pM] (JCV VP1 mutant S269F [2])	AB conc. (lowest concentration of antibody that gave a clear signal above background) [3] [ng/mL]	EC50 [3] [µg/mL]	binding result (JCV VP1 mutant L55F [4])	AB conc. (lowest concentration of antibody that gave a clear signal above background) (JCV VP1 mutant S269F [5]) [ng/mL]	EC50 (JCV VP1 mutant S269F [5]) [µg/mL]	Neutralization of JCV L55F: EC50 [pM] (JCV VP1 mutant L55F [6])	AB conc. (lowest concentration of antibody that gave a clear signal above background) (JCV VP1 mutant L55F [4]) [ng/mL]	EC50 (JCV VP1 mutant L55F [4]) [µg/mL]
B1	180	7	< 22	0.0247	no binding (tested: 2.5 ng/ml to 200 ng/ml)	< 2.5	0.0074	–	–	–
B2	2250	733	< 67	0.393	no binding (tested: 2.5 ng/ml to 200 ng/ml)	< 22	0.121	–	–	–
B3	–	–	–	0.0085	–	–	–	–	–	–
B4	155	20.9	< 22	0.0193	–	< 7.4	0.0185	–	–	–
B5	2710	–	< 200	1.3	no binding (tested: 2.5 ng/ml to 200 ng/ml)	< 22	0.147	–	–	–
B6	124	12.7	< 2.5	0.0019	–	< 2.5	0.0069	245	< 2.5	0.0077
B7	160	30	< 7.4	0.0117	–	< 2.5	0.0071	–	< 2.5	0.0132
B8	182	55.3	< 2.5	0.0065	–	< 2.5	0.0075	–	< 2.5	0.0147
B9	127	55.3	< 2.5	0.008	–	< 2.5	0.022	3380	< 22	0.0465
B10	301	37.3	< 2.5	0.0071	–	< 2.5	0.008	6600	< 2.5	0.0143
